Results as given in the supplement of paper PMC5998384.

Assays:
[1] = tested on: HeLa Kyoto; test: melting temperature (median over replicates), in situ; higher = more thermally stable
[2] = tested on: HeLa Kyoto; test: solubility change mitosis vs G1/S (difference of NP-40 vs SDS log2 ratios) (log2 ratio difference); higher = more soluble in mitosis
[3] = tested on: HeLa Kyoto; test: thermal stability score vs G1/S (z-score of summed log2 fold changes over temperatures); higher = more thermally stable than in G1/S
[4] = tested on: HeLa Kyoto; test: solubility in G1/S (NP-40 vs SDS abundance) (log2 ratio); higher = more soluble; conditions: cell cycle stage: G1/S
[5] = cell cycle stage: early G1 (4.5 h after nocodazole release)
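Throughout, for melting temperature (median over replicates), in situ: HeLa Kyoto cells synchronized by double thymidine or nocodazole block, proteins quantified by TMT10plex mass spectrometry, three independent biological replicates.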
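Throughout, for solubility change mitosis vs G1/S (difference of NP-40 vs SDS log2 ratios): synchronized HeLa Kyoto cells (double thymidine block for G1/S, nocodazole release for mitosis), protein amounts in NP-40 versus SDS lysates quantified by mass spectrometry, three biological replicates.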
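Throughout, for solubility in G1/S (NP-40 vs SDS abundance): HeLa Kyoto cells arrested at G1/S by double thymidine block, proteins quantified by TMT10plex mass spectrometry in mild NP-40 versus SDS extracts, three biological replicates.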
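Throughout, for thermal stability score vs G1/S (z-score of summed log2 fold changes over temperatures): synchronized HeLa Kyoto cells, proteins quantified by TMT10plex mass spectrometry, three biological replicates, mitosis taken 0.5 h after nocodazole release, G1/S directly after double thymidine block.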

Row | Sequence | melting temperature ([1]; cell cycle stage: G1/S) | melting temperature ([1]; cell cycle stage: mitosis) | solubility change mitosis (log2) [2] | thermal stability score [3, 5] | thermal stability score ([3]; cell cycle stage: mitosis) | solubility in G1/S (log2) [4]
1 | MGKRQHQKDKMYITCAEYTHFYGGKKPDLPQTNFRRLPFDHCSLSLQPFVYPVCTPDGIVFDLLNIVPWLKKYGTNPSNGEKLDGRSLIKLNFSKNSEGKYHCPVLFTVFTNNTHIVAVRTTGNVYAYEAVEQLNIKAKNFRDLLTDEPFSRQDIITLQDPTNLDKFNVSNFYHVKNNMKIIDPDEEKAKQDPSYYLKNTNAETRETLQELYKEFKGDEILAATMKAPEKKKVDKLNAAHYSTGKVSASFTSTAMVPETTHEAAAIDEDVLRYQFVKKKGYVRLHTNKGDLNLELHCDLTPKTCENFIRLCKKHYYDGTIFHRSIRNFVIQGGDPTGTGTGGESYWGKPFKDEFRPNLSHTGRGILSMANSGPNSNRSQFFITFRSCAYLDKKHTIFGRVVGGFDVLTAMENVESDPKTDRPKEEIRIDATTVFVDPYEEADAQIAQERKTQLKVAPETKVKSSQPQAGSQGPQTFRQGVGKYINPAATKRAAEEEPSTSATVPMSKKKPSRGFGDFSSW [PPIL2] | 47.5 °C | 48.4 °C | -0.019 | 0.984 | 1.06 | 0.00272
2 | MGKSESQMDITDINTPKPKKKQRWTPLEISLSVLVLLLTIIAVTMIALYATYDDGICKSSDCIKSAARLIQNMDATTEPCTDFFKYACGGWLKRNVIPETSSRYGNFDILRDELEVVLKDVLQEPKTEDIVAVQKAKALYRSCINESAIDSRGGEPLLKLLPDIYGWPVATENWEQKYGASWTAEKAIAQLNSKYGKKVLINLFVGTDDKNSVNHVIHIDQPRLGLPSRDYYECTGIYKEACTAYVDFMISVARLIRQEERLPIDENQLALEMNKVMELEKEIANATAKPEDRNDPMLLYNKMTLAQIQNNFSLEINGKPFSWLNFTNEIMSTVNISITNEEDVVVYAPEYLTKLKPILTKYSARDLQNLMSWRFIMDLVSSLSRTYKESRNAFRKALYGTTSETATWRRCANYVNGNMENAVGRLYVEAAFAGESKHVVEDLIAQIREVFIQTLDDLTWMDAETKKRAEEKALAIKERIGYPDDIVSNDNKLNNEYLELNYKEDEYFENIIQNLKFSQSKQLKKLREKVDKDEWISGAAVVNAFYSSGRNQIVFPAGILQPPFFSAQQSNSLNYGGIGMVIGHEITHGFDDNGRNFNKDGDLVDWWTQQSASNFKEQSQCMVYQYGNFSWDLAGGQHLNGINTLGENIADNGGLGQAYRAYQNYIKKNGEEKLLPGLDLNHKQLFFLNFAQVWCGTYRPEYAVNSIKTDVHSPGNFRIIGTLQNSAEFSEAFHCRKNSYMNPEKKCRVW [MME] | 53 °C | 55.9 °C | -0.0403 | -0.835 | -0.832 | -0.0691
3 | MGKVNVAKLRYMSRDDFRVLTAVEMGMKNHEIVPGSLIASIASLKHGGCNKVLRELVKHKLIAWERTKTVQGYRLTNAGYDYLALKTLSSRQVVESVGNQMGVGKESDIYIVANEEGQQFALKLHRLGRTSFRNLKNKRDYHKHRHNVSWLYLSRLSAMKEFAYMKALYERKFPVPKPIDYNRHAVVMELINGYPLCQIHHVEDPASVYDEAMELIVKLANHGLIHGDFNEFNLILDESDHITMIDFPQMVSTSHPNAEWYFDRDVKCIKDFFMKRFSYESELFPTFKDIRREDTLDVEVSASGYTKEMQADDELLHPLGPDDKNIETKEGSEFSFSDGEVAEKAEVYGSENESERNCLEESEGCYCRSSGDPEQIKEDSLSEESADARSFEMTEFNQALEEIKGQVVENNSVTEFSEEKNRTENYNRQDGQRVQGGVPAGSDEYEDECPHLIALSSLNREFRPFRDEENVGAMNQYRTRTLSITSSGSAVSCSTIPPELVKQKVKRQLTKQQKSAVRRRLQKGEANIFTKQRRENMQNIKSSLEAASFWGE [RIOK2] | 52.5 °C | 52 °C | -0.21 | -0.571 | -0.171 | -0.263
4 | MGLADASGPRDTQALLSATQAMDLRRRDYHMERPLLNQEHLEELGRWGSAPRTHQWRTWLQCSRARAYALLLQHLPVLVWLPRYPVRDWLLGDLLSGLSVAIMQLPQGLAYALLAGLPPVFGLYSSFYPVFIYFLFGTSRHISVGTFAVMSVMVGSVTESLAPQALNDSMINETARDAARVQVASTLSVLVGLFQVGLGLIHFGFVVTYLSEPLVRGYTTAAAVQVFVSQLKYVFGLHLSSHSGPLSLIYTVLEVCWKLPQSKVGTVVTAAVAGVVLVVVKLLNDKLQQQLPMPIPGELLTLIGATGISYGMGLKHRFEVDVVGNIPAGLVPPVAPNTQLFSKLVGSAFTIAVVGFAIAISLGKIFALRHGYRVDSNQELVALGLSNLIGGIFQCFPVSCSMSRSLVQESTGGNSQVAGAISSLFILLIIVKLGELFHDLPKAVLAAIIIVNLKGMLRQLSDMRSLWKANRADLLIWLVTFTATILLNLDLGLVVAVIFSLLLVVVRTQMPHYSVLGQVPDTDIYRDVAEYSEAKEVRGVKVFRSSATVYFANAEFYSDALKQRCGVDVDFLISQKKKLLKKQEQLKLKQLQKEEKLRKQAASPKGASVSINVNTSLEDMRSNNVEDCKMMQVSSGDKMEDATANGQEDSKAPDGSTLKALGLPQPDFHSLILDLGALSFVDTVCLKSLKNIFHDFREIEVEVYMAACHSPVVSQLEAGHFFDASITKKHLFASVHDAVTFALQHPRPVPDSPVSVTRL [SLC26A6] | 56.6 °C | 56 °C | -0.0476 | -1.84 | -2.56 | -0.00184
5 | MGLLAFLKTQFVLHLLVGFVFVVSGLVINFVQLCTLALWPVSKQLYRRLNCRLAYSLWSQLVMLLEWWSCTECTLFTDQATVERFGKEHAVIILNHNFEIDFLCGWTMCERFGVLGSSKVLAKKELLYVPLIGWTWYFLEIVFCKRKWEEDRDTVVEGLRRLSDYPEYMWFLLYCEGTRFTETKHRVSMEVAAAKGLPVLKYHLLPRTKGFTTAVKCLRGTVAAVYDVTLNFRGNKNPSLLGILYGKKYEADMCVRRFPLEDIPLDEKEAAQWLHKLYQEKDALQEIYNQKGMFPGEQFKPARRPWTLLNFLSWATILLSPLFSFVLGVFASGSPLLILTFLGFVGAASFGVRRLIGVTEIEKGSSYGNQEFKKKE [AGPAT3] | 52.2 °C | 52.4 °C | -0.0117 | -0.691 | -1.45 | -0.0836
6 | MGLLLMILASAVLGSFLTLLAQFFLLYRRQPEPPADEAARAGEGFRYIKPVPGLLLREYLYGGGRDEEPSGAAPEGGATPTAAPETPAPPTRETCYFLNATILFLFRELRDTALTRRWVTKKIKVEFEELLQTKTAGRLLEGLSLRDVFLGETVPFIKTIRLVRPVVPSATGEPDGPEGEALPAACPEELAFEAEVEYNGGFHLAIDVDLVFGKSAYLFVKLSRVVGRLRLVFTRVPFTHWFFSFVEDPLIDFEVRSQFEGRPMPQLTSIIVNQLKKIIKRKHTLPNYKIRFKPFFPYQTLQGFEEDEEHIHIQQWALTEGRLKVTLLECSRLLIFGSYDREANVHCTLELSSSVWEEKQRSSIKTVELIKGNLQSVGLTLRLVQSTDGYAGHVIIETVAPNSPAAIADLQRGDRLIAIGGVKITSTLQVLKLIKQAGDRVLVYYERPVGQSNQGAVLQDNFGQLEENFLSSSCQSGYEEEAAGLTVDTESRELDSEFEDLASDVRAQNEFKDEAQSLSHSPKRVPTTLSIKPLGAISPVLNRKLAVGSHPLPPKIQSKDGNKPPPLKTSEITDPAQVSKPTQGSAFKPPVPPRPQAKVPLPSADAPNQAEPDVLVEKPEKVVPPPLVDKSAEKQAKNVDAIDDAAAPKQFLAKQEVAKDVTSETSCPTKDSSDDRQTWESSEILYRNKLGKWTRTRASCLFDIEACHRYLNIALWCRDPFKLGGLICLGHVSLKLEDVALGCLATSNTEYLSKLRLEAPSPKAIVTRTALRNLSMQKGFNDKFCYGDITIHFKYLKEGESDHHVVTNVEKEKEPHLVEEVSVLPKEEQFVGQMGLTENKHSFQDTQFQNPTWCDYCKKKVWTKAASQCMFCAYVCHKKCQEKCLAETSVCGATDRRIDRTLKNLRLEGQETLLGLPPRVDAEASKSVNKTTGLTRHIINTSSRLLNLRQVSKTRLSEPGTDLVEPSPKHTPNTSDNEGSDTEVCGPNSPSKRGNSTGIKLVRKEGGLDDSVFIAVKEIGRDLYRGLPTEERIQKLEFMLDKLQNEIDQELEHNNSLVREEKETTDTRKKSLLSAALAKSGERLQALTLLMIHYRAGIEDIETLESLSLDQHSKKISKYTDDTEEDLDNEISQLIDSQPFSSISDDLFGPSESV [PDZD8] | 51.8 °C | 52.2 °C | -0.0986 | -1.18 | -0.643 | -0.312
